# Results as given in the DeepSol protein solubility set.
# Test: soluble on expression in E. coli; label from the status in PepcDB or PDB records
row,Sequence,soluble on expression in E. coli
1,MAHHHHHHMSTSNEEDKWSAISAKKIAPKYRKGYYPNRDIMTPKKKTEKKELTYKNSKIAIGRTKSLRFRRDTVTFATKNINFQHRKKSILSKQKSMAEPKLKKQNTVALKRRKTMSRLNSMKKPPYTIVLNKKKVINMNKGMHPSENRKDKISGTTNTPLAARRMLARSKTKVLVDNETKIFKKENVKMVSSNPFNPIASSVESSRRNELENGKQKKELGTVGSANKRESAQHLSTNADKKKIYHNSVRNKLKSKKEEMFQNIISLTKNMKEKPLKKKYNDQIDPRDLLSVTSNNSSVAVDDDL,not soluble
2,MAHHHHHHMSYQPPYGYASSPQASPYFPGGNYYSTPPPIPQQQPFQTSPLFGTEQEAVQWFRAVSSSSGGYISVPQLQSALSQGGMNFSYATTERLISMFDANLDGAIDFTEFQELHRYILSMRGGFSQRDTSRDGLLEGNEVRMALSANFYQVDDNTFQTLMRKFDRRKRGSLGFDDYIELSLFVGKANDAFKAQSQGKASATFSFSSFLSAGASLL,soluble
3,MAHHHHHHMTALITKQRYNWMGYDGVESAVCDTALLRSDGGPANNYNYMHRQQVIMEVKERLYRIKRDLGLIPEEELRAEERAIQRRRMEKKRREEEERIRKEAEEAARAEEMERRHLELEEAEERASAEEVATQASAEHKHYMNDSDEDSDEENGIDDEQSASLVAMLRTQEEIDSAIAGFTKGTRMLLASSGNGYVSYLDGSVHFTIAKVESHNASNREKVMQALAGTNVAMPTAEEYSLEEVRQAMHDRDTARKKLDALRALQDPTYTARIRSAEKDTYGTPVQQLMEEDGDMSALVANCEDAKRFAESVRKAYNSRAAASAHALACALCTPPFTAEQESTSEAQAPAGKMANAEDGVSQPTGANSPSSSTSAQ,not soluble
4,MAHHHHHHMTDASKYKKLTPIDHVLLRPEMYVGSIETQPTPMYIFDPEKGRMVWETMRVNQGLLKIVDEILLNAADNINNSKGSVRQTYINIHISDTGEITVENDGAGLPIVRSREHKMYIPEMVFGHLLTSSNYNNDSTSTTAGRHGYGAKLTNILSTKFSVVCRTDGREFHMSWTDHMRMATAPRVNRVDPKEKNVTRVKFMPDYAHFGFPSASISLDMKRVLHKRVMDLAAMFSKIEVRLNNVPFGFRTFTDYAGLYSLPGLDGSMPPEPFVYTSPNGSVAYVPQLTQSPKRIVSVVNGVVTYNGGTHCNAAMDILDACLDSLSKNFKKNGKVVDTNRVQRHFTVLVFLVQAQPKFDSQSKARLVSTVTMPRVPKNTLEKYLERMPFLEAHVNSMDDQLTNELNKEIGAGRRLSSKTLISSITKLVDATSSRPDGRNIRTLIITEGDSAKALALNSLSSEQKKYCGVFPLRGKLLNVRNKNLKRLKTCKELQDLFLSLGLELGKEYRSPAELRYQRLLVMTDQDADGSHIKGLVINAFESLWPKLLQNNPGYISLFSTPIVKIKVSGKSKEAIAFHSFRDFHRWQRAHPSARYTAKYYKGLGTSTTAEGKEYFADMEKNVMQLTVDARDHQLLDSVFDAAEVEWRKEWMTKANAFQGEVDIDRSKKTLTIPEFVHKEMVHFALVGNARAIPHCVDGLKPSQRKILWAMLRRHNSEASKVAQLSGYISEASAFHHGEASLQETIVKMAQNFTGGNNINLLVPEGQFGSRQQLGSDHAAPRYIFTKLSRFARLLFPEEDDPLLDYMDEEGTFVEPHHYVPILPMLLCNGAVGIGFGFATTIPSFHPLDVSAAVRAMINGESAKQVVRNLVPWAVGFQGTVRRGPDNEFIAVGKYTAHPNGRFHISEIPWMTSIEAFRLHISSLASADVVQRIADYSGANHIDIDLIVRDGSLTTWAECETDLALAQRIYINGTVFSPAGTLSPIDSDLSPVLQWHYDRRLDLYKRRRTRKIGLMEMDLARLQSTRKFVEHFRQGQIDFLNATDDTLHKTCVKLGLVRVDESFDYILKKPITFFTRTSTEKLQADIAKTQAQIEELKRTTPVKMWLTELDKFDKTFQEYERVLINSIQKEQRSSSITGGVELPALRQPLLLLEASVKGATAYRVHACQYEKPPPSKRRPGESFGGARSSDSAVRGVGKRLVGSRAVFKKKKPMGRKNNVKVSLSTRVAQFAGAQLGRLLPHILV,not soluble
5,MAHHHHHHMTGLIAPHAGMSYSGRTAAEAFAVFREYLYAKGSKGSELERIFILGPSHTRGFEGCELSAASAYETPFGPLRVDTAVVDRVITDLRKAGVGAATASRRTDEAEHSIEMETPYLSHILHYPPTTTGAPVQPAAGRVAIVPIIVGWTNRQDEKAICDVLKPYMDDARNFFICSSDFCHWGERFSYTYHYKRSEYPNIGDSIIAMDHAAMELLEKRDLERWYAYLQMTKNTICGRAPISIGMQRWASKGNKARVKFVHYSQSNKCKDADDSSVSYAAAIIME,soluble
6,MAHHHHHHMTQLHSVASLDYGDGRTCVCRICECGKHQCPGLRVPFVGETTYRDEYVGKSIERERPRKARQTVFPSKAEPGHFKTTKQEAADLLKGKDLRPAESYKPREAAAAPLPFEGTTTNRADFPGWMPDYNRTKRKEDPLPRLPGTYVTTKGAMEEPVRDLAEQGRLPKPPKSFKADDTLQNSLPFDGITNYTAEYQPKEVPMTRSAARDVQPVALPENRDFQTTVSAAYQVPPMHMRHDCPAAFVPMRPASRDGHIKLSVYNIPSGDTMY,not soluble
7,MAHHHHHHMTTADDVCGAYTLSHCDGKVAPTKATLTIHRCGEILTAHVTVVNDLRGTVQYENCHIVGSLHSTGNEASPAQESVEQALSKGFADGFNVVVEMNQVLLKNANSAFVFARLSKLSDLNGEHAIIAINDQPPNQEMTMIFTPDGNGGSFVAANIANSLRGNCQIDAGLLRGDLATTQSEADESLMQVEKLISEGFQQGFHVCMNESGILLQSSEANIQLCRIVSHSDLEGEYVLKSFNGAPVPTRNQPSIVFKSVNTNEVEISIVVANRIRGTAALNQNVLSSEEPLMSTRMMGTEEESQLENAFNVGFQYGLETISHGNELTLKNQDCKFVLVKAAAPAAQHGGPTYKGTYCNKCFKTEGNGLLFRIVNEHEKKWAFYNDTEDLRIRVRATFGARSKIEALDNANMYKDDDGRYVVEVTVDPQATEMFIQGDVNGFRVLYDAQPI,not soluble
8,MAHHHHHHMTVVQEAIRVTSATPQPCGAADDVLAMKTLSPHDKVRRYMEEQECRHVPPTDATPEVASSEGGHDDALPGQHEDGDGEINHKIVPFTGEPGPDARERVPDRQKEKKKQKKQQAPRKRKHRSECAGREADDPLLLFRRSQKALRTEARHVNMKEVLSRSLSGVFDGLGEASNPFSPAAGSQSSSAWSPLVANSITSQFLSNVQQRKKQTFERLLQKEIANSQLSTSRLTPDDGEPDDRIPELVIGDETAVMEPPSMGHDALLMDAGTTSSQADTLLMGNTTSRGFVELDEEAEQAQSEALMRKHELWRLRQKHLRERLRAEESIPQLKRGDHQASLRGQPQTTVPMNFVTQSTSSLSTARGTTADVDGPTETLVLAHCSIIQQSQSLALGLSADHIEMIRRANNFDNTSSQRLVVFETKSRMKREGLAHLQQ,not soluble
9,MAHHHHHHMVLTSDRGWPYSWERGESGILPDCYLNSEVERVWQIVKKDLTKLFSSHGKNKPSCHPRVLIGTPGIGKSMNVGSYLLYQLLHYDVEQLPMVVYFIANLTFLFDKTAKMVSLYTNEASILRILDGLPDRGFKGHIIYDVAMKGHQPSIGLPCKGWGMIVVTPPDKNNHEWWAKQMGAEEFIINCPEENDVRAMCIWMKRNRPLQEQAEYWKEVNGRMNKVGPILRFIFGKQAYDDRIKACQQALDGMNASKFEGYLDIGYCCVSNDSDLSRKLVKVVRVRRGYNFASPLNVLISPHLERETLSRLEDGMKQSDFIFFVLRFWDYVPPYLIEKYAVSAFLNDDFLRAIRLKIKELWPPGRRESHRCALKEHSDTSFARKEVLPPPERLSNPVAMDHWVLYEPKVQNFPLVDGFFFVDSNPKTLVGLRMTTAGGHRTTTRTVRRFTE,not soluble
10,MAHHHHHHMWAKYSSSAVEEASKQAKSFATYPSSTPDMSGDEKEAFHETNSRDAFTVALLKHVARNLGVQYMGDRVETSDSIVMDKLGRIKAEIRSRERLLGVENMGLIPLFIEAGDSSLTCEDSLIYYKKALDIVEANKDIKRDSNMMNDVGVSSFADLGSRFFRYGQYQVAERLFTMAAAISRDKVTGVAEEISFSTAQCGSQKSLQRLKGHLWDWKKAAEAANEDLSTLLSDATRNTHRFREMRDACSQTDLAEHRVAMPASQFIGTKREMKGLKGTRNGEELKRLVEYVFDPMSVEDGFTRQLLPKGSRNTTRLLSEHFTGSNPCLALRESIDCITSRIGAKADSINSSGGALRRELQTR,not soluble
11,MAHHHHHHMWDPFRDIDRIFNRVLPLTGAGSFSSFSRGSWSPAMDLVEKPEGYKLLVDLPGMNREDIQVGIEDNRLCISGNRKSLLKDDEQHLAVFLERGYGRFERCMNLPSPIVEESVKARLRDSVLVVELKKNNSPASSAATSVTIQ,soluble
12,MAHHHHHHMYKYEKLYFFMCWKKCRFNNLTKVFLHSSNDYYNNLNVIKKEKGIFEKLLCIGNYNVDNFCFDKELYEKYRECIKNDYEKIRIKLKERKQNEYNNIHSKNLEHNESNICNNNNNNNINVYESYLYNIIQNNDYKDILISDVIYENGKNILCIGEANLSFSLLLQKNLNLCKVVSTSREDESVLIKKFGKKYFSKNLKLLESSGGIYIPNMNVENLSNQFLKNTFDIIIFNFPFVLPTKECIEKKWNIKLEREEIYSDNLKNETNSNNNSNSNNNNKSNNNNGNNNSSNNVYIKYYKKTEYFLLNKLIYHLFKCASHLLKNEGFLHIRLNDKYLTCSFPKNMSLSFLQKIDFSNSYIIYKSLKYVPSLFDCTFLNYEDKKKEKTKNNVIFTSSGKKIFKSFKMKHTSTLIFQKI,not soluble
13,MAHHHHHHMYLGSIKNFEDDFLCKGEYKQVYLSLEQNENNEAIEIDICCDNNIYDILQFCREKYGIYGEYIIDSCGNVIHSIKDIIDGDTLYLKEKKEDMNFFSKIKNNFIVNDYIVEKRIGSGGFGIVFQGVHIQTKQKVALKFIPKSNFLDVTDVHRVFIEIQTLRGLIHNNIIKMYDVNHFQNYVCLIMEYAINGDLKNYIKNKFNGFLSEKEAHDLFLQIVKGVYYCHSKHIVHRDLKLENILLDEKMTCKIADFGLSDFVNVDQNIKTEAGTKAYIAPEIIFNQTINYSVFKLDIWSLGILLFIMTQGFAPFKYMEKELKNFESNTLNYANDISDDLKDLISLMLNVDPNKRPIIVEILNHRWFENYKES,soluble
14,MAHHHHHHMYLLQCEKKKKQKGKGQIGLTQVEYIGKPLIGGDFTLINHDGKVVTNEDFKKKFCLIYFGFTYCPDICPQELEKQTIVIERIVKKYGDVITPVFISVDPNRDTLAQVKHYCSSFSDRLVGLTGTKEQIRRVAKLFRVYYNEHVVGEEQTEEQTEKQKERQTDTQTEAQSGDPPRAPSYNYLIDHSIIHYLLDADGKFVDFFGKNCTTSEMVERISHYVDLHLQ,not soluble
15,MAHHHHHHMYVVGPMVDQSELPFRMLCRRYGATLAYSPMLHARSFAQSAQYRARYFSTTPHRAEPAMTATVSGEGEAAEDAGRTSDGKETDHPLFVQFCGNDADTLLAAARHVEDDCEAVDVNLGCPQGIARRGHYGSFLMEDWDRVHNILHCLAVELRVPVTAKMRVFDDDALTLKYAEMLRDTGIAVLCVHGRTRHNKRGLADMEKIRRVREHLRGSIPVIGNGNVLTFEDVRRNMSVTMTDGYMCAEPLLWDPRLFAAPLHPVRNGRCFAECCEARLDAIRTAQEYLQLVQRYPVDLAFVKAHLFKMLFHSYEMHPVMHGWLTNFSCNGRGGNNNNNAGSDVNGEVEDGDIDDGRSPDGASESGSGNANKAESNVKQAAGNLDFFAFAMDALGEHLRQLYAAEVSCGVEGPQPKRAHEREKGVNDDTSSSAKRKVETSHDAFAEDDVFGIDFDLNKK,soluble
